In general, stoichiometry N refers to a count of units in the complex or per binding partner.

Stoichiometry N data for one substance are collected here from paper PMC6298231.

This assay deals with Thrombospondin-1, full-length 185 kDa protein released by endothelial cells (human (endogenous in microvascular endothelial cells)) (UniProt P07996). The assay can be described thus: non-reducing SDS-PAGE with immunoblot. On the technique in general: In western blotting, separated proteins are transferred to a membrane and probed.

On to “Thrombospondin-1, full-length 185 kDa protein released by endothelial cells (from UniProt P07996 19-1170) (natural protein)”, for which the stoichiometry N is 3.
